Experimental data as given in patent US20170088634A1, “TREATMENT OF NEUROTRAUMA USING ANTIBODIES TO LYSOPHOSPHATIDIC ACID” (priority 2012, published 2017).
Like-named read-outs stand apart in the source and are kept apart here. Marks after values point to notes of the source that are not given here.

Legend:
adult mouse NSC = assay: Neuronal differentiation of adult mouse NSC; assay type: cell-based
Excerpt: However, and similarly to data obtained in human NSC, LPA inhibited the neuronal differentiation of adult mouse NSC by maintaining them as NSC when plated in conditions normally inducing neuronal differentiation. […] These effects were independent of apoptosis or proliferation.

hNS/PC neurospheres [1] = assay: Neurosphere formation; assay type: cell-based, human; settings: LPA 10 uM
Excerpt: (§1) Neurospheres were used to model the role of LPA in neuronal differentiation as described in commonly-owned U.S. patent application publication no. US20110076269 and U.S. Pat. No. 8,604,172. […] LPA also interferes with an additional differentiation step, namely, the differentiation of NSC toward mature cells.
Anti-LPA antibodies have been found by the inventors to block LPA inhibition of neurosphere formation, as described in commonly-owned U.S. patent application publication no. US20110076269 and U.S. Pat. No. 8,604,172.

hNS/PC neurospheres [2] = assay: Neuronal differentiation of plated neurospheres (neuron-forming neurospheres); assay type: cell-based, human
Procedure: as §1
Using the same conditions used in Example 2, above, for LPA treatment alone, plated neurospheres were treated with 10 μM LPA alone, or with anti-LPA antibody B3 or B7 (1 mg/ml) alone, or with 10 μM LPA in combination with 1 mg/ml of antibody B3 or B7. Similarly, cells were treated with 10 μM LPA alone, humanized anti-LPA antibody LT3015 alone (1 mg/ml), or with 10 μM LPA in combination with 1 mg/ml LT3015. The percent of neuron-forming neurospheres was quantitated as in Example 2 (beta-tubulin staining and quantification of neuron-forming spheres, as described in Dottori, et al (2008)). […] Neurosphere samples treated with B3 antibody alone had neuron-forming neurospheres equivalent to control (100%). […] The antibody B7, under similar conditions, had little to no effect in this experiment (37.00±5.31% of control).
Using the conditions described in the Example above, […] were plated onto laminin for neuronal differentiation in NBM medium (3 days), with or without LPA (10 μM), with or without antibody to LPA at 1 mg/ml (B3, B7, or the humanized antibody LT3015, tested singly with or without LPA).

[3] = cited from earlier work
[4] = Competition ELISA specificity, competitor lipid LPC; assay type: binding; settings: n = 3
Procedure: (§2) The specificity of the anti-LPA mAbs was assessed for their binding to LPA-related biolipids such as distearoyl-phosphatidic acid, lysophosphatidylcholine, SIP, ceramide, and ceramide-1-phosphate.

human IL-6 = assay: LPA-induced IL-6 release in SKOV3 conditioned media; assay type: cell-based; settings: Lpathomab 300-600 mg/mL, 1 mM 18:1 LPA, SKOV3, n = 3
[5] = Competition ELISA specificity, competitor lipid S1P; assay type: binding; settings: n = 3
SKOV3 cells = assay: Apoptosis: Taxol induced caspase-3 activation in SKOV3 cells, LPA protection; assay type: cell-based; settings: Lpathomab, 1 mM Taxol, 1 mM 18:1 LPA, SKOV3, n = 1
[6] = cited from earlier work; remark: listed apart in the source
[7] = Competition ELISA, competitor lipid 16:0 LPA; assay type: binding; settings: maximum inhibition
Excerpt: (§3) Although polyclonal antibodies against naturally-occurring LPA have been reported in the literature (Chen, et al., Bioorg Med Chem Lett. 2000 Aug. 7; 10(15):1691-3), monoclonal antibodies to LPA had not been described until Sabbadini, et al., U.S. patent application publication no. 20080145360, and U.S. Pat. No. 8,158,124, both of which are commonly owned herewith. The former publication describes the production and characterization of a series of murine monoclonal antibodies against LPA and the latter describes, among other things, a humanized monoclonal antibody against LPA. IC50: Half maximum inhibition concentration; MI: Maximum inhibition (% of binding in the absence of inhibitor); ---: not estimated because of weak inhibition. A high inhibition result indicates recognition of the competitor lipid by the antibody.

[8] = cited from earlier work; remark: listed apart in the source
[9] = Competition ELISA specificity, competitor lipid DSPA (distearoyl PA); assay type: binding; settings: n = 3
Procedure: as §2

SKOV3 cell migration = assay: Migration assay, SKOV3 cells triggered by LPA; assay type: cell-based; settings: Lpathomab, 1 mM 18:1 LPA, SKOV3, n = 3
[10] = cited from earlier work; remark: listed apart in the source
[11] = Competition ELISA specificity, competitor lipid C1P; assay type: binding; settings: n = 3
[12] = Specificity of LT3000 against other lipids and proteins; assay type: binding; settings: over 100 different bioactive lipids and proteins, including over 20 bioactive lipids
Excerpt: (§4) The murine antibody is a full-length IgG1 k isotype antibody composed of two identical light chains and two identical heavy chains with a total molecular weight of 155.5 kDa.

[13] = Specificity / cross-reactivity profile; assay type: binding
Solubility of antibody = assay type: physicochemical; settings: 6.6 mM phosphate, 154 mM sodium chloride, pH 7.4
[14] = Surface plasmon resonance (BiaCore) and direct binding ELISA of LT3000; settings: Table 12
Excerpt: as §4

[15] = cited from earlier work; remark: listed apart in the source
interleukin-8 (IL-8) = assay: IL-8 release from ovarian cancer cells; assay type: cell-based
Excerpt: Five humanized variants were further assessed in in vitro cell assays. LPA is important in eliciting release of interleukin-8 (IL-8) from cancer cells.

SKOV3 cell invasion = assay: Invasion assay, SKOV3 cells triggered by LPA; assay type: cell-based; set-up: dose or concentration left out as unconfirmed; settings: Lpathomab 14:0 LPA, SKOV3, n = 2
[16] = Competition ELISA specificity, competitor lipid Cer; assay type: binding; settings: n = 3
human IL-8 = assay: LPA-induced IL-8 release in SKOV3 conditioned media; assay type: cell-based; set-up: dose or concentration left out as unconfirmed; settings: Lpathomab 18:1 LPA, SKOV3, n = 3
[17] = Binding affinity of humanized, chimeric and murine anti-LPA antibodies
[18] = Competition ELISA, competitor lipid 14:0 LPA; assay type: binding; settings: maximum inhibition
Excerpt: as §3

[19] = Competition ELISA, competitor lipid 18:2 LPA; assay type: binding; settings: maximum inhibition
Excerpt: as §3

[20] = Competition ELISA, competitor lipid 18:1 LPA; assay type: binding; settings: maximum inhibition
Excerpt: as §3

Apparent Tm of antibody = assay type: physicochemical; settings: pH7.4
[21] = Competition ELISA, competitor lipid 20:4 LPA; assay type: binding; settings: maximum inhibition
Excerpt: as §3

For lysophosphatidic acid [LPA], the “neurosphere formation or growth of mouse NSC” value (adult mouse NSC) was “did not modify”, the “βIII-tubulin expression (differentiated neurons)” value (adult mouse NSC; LPA (10 NM), three days, untreated 57.12±18.42%) was 26.25±2.08 % of total cells and the “nestin positive (undifferentiated NSCs)” value (adult mouse NSC; LPA (10 NM), three days, untreated 58.01±6.20) was 87.55±3.20 % of total cells. The “neurosphere formation, LPA” value (hNS/PC neurospheres [1]) was “inhibited”, the “decrease in neuron-forming spheres” value (hNS/PC neurospheres [2]; 10 uM LPA) was roughly 80% and the “neuron-forming spheres, LPA alone (Example 4)” value (hNS/PC neurospheres [2]; 10 μM LPA, 3 days) was “approximately 26 % of control”.

B1: B7: murine anti-LPA monoclonal antibody, full-length IgG1k; VH SEQ ID NO: 3, VL SEQ ID NO: 4 (antibody, V domains shown)
VH: QVQLQQSGAELVRPGTSVKVSCKASGYGFINYLIEWIKQRPGQGLEWIGLINPGSDYTNYNENFKGKATLTADKSSSTAYMHLSSLTSEDSAVYFCARRFGYYGSGNYFDYWGQGTTLTVSS
VL: DVVMTQTPLSLPVSLGDQASISCTSGQSLVHINGNTYLHWYLQKPGQSPKLLIYKVSNLFSGVPDRFSGSGSGTDFTLKISRVEAEDLGVYFCSQSTHFPFTFGTGTKLEIK
In the case of B1, the IC50 ([3]; competition ELISA, read-out: 18:1 LPA IC50) is given as greater than 2000 nM, the “18:1 LPA MI” value ([3]; maximum inhibition) is given as 100% and the “MI, competitor lipid LPC” value [4] is given as 0%. The “IL-6 Release % Inhibition (over LPA taken as 100)” value (human IL-6) was 23* %, the “MI, competitor lipid S1P” value [5] was 2.7% and the “Apoptosis % Induction (over LPA + TAXOL taken as 100)” value (SKOV3 cells) was 79%. The IC50 ([6]; competition ELISA, read-out: 16:0 LPA IC50) was 483 nM, the “16:0 LPA MI” value ([6]; maximum inhibition) was 62.9% and the “MI, competitor lipid 16:0 LPA” value [7] was 62.9%. The IC50 ([8]; competition ELISA, read-out: 20:4 LPA IC50) was 161 nM, the “20:4 LPA MI” value ([8]; maximum inhibition) was 67% and the “MI, competitor lipid DSPA” value [9] was 0%. For the same molecule, the “Migration % Inhibition (over LPA taken as 100)” value (SKOV3 cell migration) was 35* %, the IC50 ([10]; competition ELISA, half maximum inhibition concentration, read-out: 14:0 LPA IC50) was 105 nM and the “14:0 LPA MI” value ([10]; maximum inhibition (% of binding in the absence of inhibitor)) was 61.3%. The “MI, competitor lipid C1P” value [11] was 1.0%, the “binding affinity for other bioactive lipids and proteins (specificity)” value [12] was “no binding affinity” and the “cross-reactivity to LPC, PA, 14:0 and 18:1 LPA, cPA, PC” value [13] was “no cross-reactivity”. For the same molecule, the Solubility (Solubility of antibody) was >40 mg/mL in 6.6 mM phosphate,, the Kd [14] was 0.001 to 0.05 nM and the IC50 ([15]; competition ELISA, read-out: 18:2 LPA IC50) was 1490 nM. For the same molecule, the “18:2 LPA MI” value ([15]; maximum inhibition) was 100%, the “IL-8 release from ovarian cancer cells” value (interleukin-8 (IL-8)) was “reduced IL-8 release” and the “Invasion % Inhibition (over LPA taken as 100)” value (SKOV3 cell invasion) was 95* %. For the same molecule, the “MI, competitor lipid Cer” value [16] was 1%, the “IL-8 Release % Inhibition (over LPA taken as 100)” value (human IL-8) was 20% and the “neuron-forming neurospheres, LPA plus antibody (pool of data)” value (hNS/PC neurospheres [2]; 10 μM LPA in combination with 1 mg/ml antibody) was 37.00±5.31 % of control. The “number of neurons in neurospheres (comparison between antibodies)” value (hNS/PC neurospheres [2]; 10 μM LPA plus antibody 1 mg/ml) was “lesser number of neurons”, the “neuron-forming neurospheres, LPA plus antibody (Example 4)” value (hNS/PC neurospheres [2]; 10 μM LPA, antibody 1 mg/ml, 3 days on laminin in NBM medium) was 50 % of control and the “binding affinity for LPA (in words)” value [17] was “low picomolar range”. The “MI, competitor lipid 14:0 LPA” value [18] was 61.3%, the “MI, competitor lipid 18:2 LPA” value [19] was 100% and the “MI, competitor lipid 18:1 LPA” value [20] was 100%. The “Apparent Tm” value (Apparent Tm of antibody) was 67 °C at pH7.4 and the “MI, competitor lipid 20:4 LPA” value [21] was 67%.
